Measured values published in the supplement of paper PMC10567573.
± gives the standard deviation.

Experiment: protein stability index of a GFP-peptide fusion (GPS, HEK-293T) (PSI 1-6); higher = more stable
[1] = treatment: DMSO, c terminus: a fixed tail appended
[2] = treatment: MLN4924 1 uM, 8 h, c terminus: a fixed tail appended
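Also: 24-mer peptide tiles fused after GFP, lentivirally expressed, FACS-sorted into six equal bins by GFP/DsRed ratio, decoded by Illumina sequencing, PSI is the read-weighted mean bin number.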

| Sequence | protein stability index [1] | protein stability index [2] | protein stability index (treatment: DMSO, c terminus: native) | protein stability index (treatment: MLN4924 1 uM, 8 h, c terminus: native) |
| --- | --- | --- | --- | --- |
| PNFNFNISHQGDYAVLAAEPELQV [AASDHPPT] | 4 ± 0.09 | 3.93 ± 0.39 |  |  |
| ERLRLEQQKQQIMAALNSQTAVQF [ACBD3] | 3.36 ± 0.46 | 3.42 ± 0.28 |  |  |
| KVPSEAPSPMPTHRSYLGPGSTSP [SLC6A17] | 4.66 ± 0.069 | 4.71 ± 0.32 |  |  |
| EAFKKHSLDLLSKERELNGKLRHL [CCDC89] | 3.34 ± 0.25 | 3.38 ± 0.14 |  |  |
| TCPSSSTASSISSSGGSSGSSSDN [DYRK1B] | 5.35 ± 0.16 | 5.48 ± 0.21 |  |  |
| AEFILLGLLEAPGLQPVVFVLFLF [OR3A1] | 2.68 ± 0.32 | 2.95 ± 0.4 |  |  |
| TEKQNFLLFDMTTHPVTNTTEKQR [GOLPH3L] | 4.31 ± 0.18 | 4.4 ± 0.32 |  |  |
| CAINKVGVSFSTVENELMISYLMF [FAM98B] | 2.63 ± 0.48 | 2.81 ± 0.41 |  |  |
| LLLYRIRKDVGCNRFEVTLEKSNK [VPS39] | 2.21 ± 0.35 | 2.14 ± 0.3 |  |  |
| RKPVEAESVEGVVRILLEHYYKEN [INTS4] | 2.35 ± 0.27 | 2.41 ± 0.5 |  |  |
| MMSVNGQAKTHTDSSEKELEPEAA [ACBD3] | 5.45 ± 0.21 | 5.38 ± 0.23 |  |  |
| PIFMRKDTKMSFQWRIRNLPYPKD [DPCD] | 2.27 ± 0.27 | 2.22 ± 0.069 |  |  |
| ELPAPAEVAAKNQSLEGDTTKGTS [MLH1] | 5.61 ± 0.14 | 5.59 ± 0.16 |  |  |
| LLSRNQLSTAASLGPSGLQNHGQH [LCOR] | 3.28 ± 0.095 | 3.46 ± 0.23 |  |  |
| YQDDPDLRFLLDQVQLGLRCCGAA [TSPAN10] | 2.56 ± 0.28 | 2.65 ± 0.22 |  |  |
| TLSISDVRTLSEPPDKGEEQVNFC [ZBTB22] | 4.94 ± 0.21 | 5.09 ± 0.22 |  |  |
| LRAVRQRSEFTLMAKRIGKDLSNT [STX5] | 2.64 ± 0.23 | 2.78 ± 0.37 |  |  |
| DIEMSMRGDIFERIVHLQETCDLG [NLN] | 3.26 ± 0.47 | 3.22 ± 0.36 |  |  |
| AESDYSNNIMKCRSRYDGHRIWMY [LOXL2] | 2.4 ± 0.29 | 2.1 ± 0.38 |  |  |
| SLGELCHPVPLSFEPVKSFFKGLV [TRIM14] | 2.47 ± 0.7 | 1.89 ± 0.17 |  |  |
| VQWKEPEEPNGQIQGYRVYYTMDP [PTPRD] | 3.3 ± 0.16 | 3.17 ± 0.23 |  |  |
| SLQMSSAEMPHTETVSPLPSSMDL [NANOGP8] | 4.93 ± 0.15 | 4.94 ± 0.14 |  |  |
| KRRQLEDERRQLQHLKSKALRERW [PALM] | 3.93 ± 0.3 | 4.22 ± 0.57 |  |  |

| Sequence | protein stability index [1] | protein stability index [2] | protein stability index (treatment: DMSO, c terminus: native) | protein stability index (treatment: MLN4924 1 uM, 8 h, c terminus: native) |
| --- | --- | --- | --- | --- |
| SQNSFLVQEVMEEEWNALQSVENC [RPAIN] | 4.53 ± 0.29 | 4.52 ± 0.32 |  |  |
| WSKTQVLDWISYQVEKNKYDASAI [ELF3] | 2.59 ± 0.2 | 2.48 ± 0.28 |  |  |
| EDDDWGEDTTEEAQRRRMDEISDH [EIF5] | 5.59 ± 0.24 | 5.34 ± 0.18 |  |  |
| LSQLRVLCCEWLRPEKHTKEQILE [ZNF232] | 2.37 ± 0.35 | 2.2 ± 0.22 |  |  |
| VDDAYVRRMAAEATEWQKAGAPPP [SRPK2] | 4.52 ± 0.26 | 4.63 ± 0.16 |  |  |
| FDDCLYALCVVDTIKRSSQTGEWQ [GFOD1] | 2.09 ± 0.42 | 2.29 ± 0.25 |  |  |
| PYKKPYMETSPSEEDSFYRSSYPQ [TBX5] | 3.91 ± 0.47 | 3.65 ± 0.41 |  |  |
| DIELDAARGDAVCTACGSVLEDNI [BRF1] | 4.88 ± 0.15 | 5.01 ± 0.37 |  |  |
| AARGKERCVRVFLEHGADPTVKDL [ASB7] | 3.73 ± 0.17 | 3.76 ± 0.38 |  |  |
| DLSVPLMDVGETAMVTADSKYCYG [FKBP8] | 4.1 ± 0.31 | 4.44 ± 0.22 |  |  |
| KEAVTGSRLGQGIGPIHLNEIQCT [LOXL2] | 3.77 ± 0.61 | 3.93 ± 0.47 |  |  |
| ILIELAMRGRIYLEPPTMRKKRLL [GOLPH3L] | 2.66 ± 0.25 | 2.74 ± 0.66 |  |  |
| MRTGQNTWESKNILAVSFAPLVQP [PCMTD1] | 2.84 ± 0.65 | 2.71 ± 0.46 |  |  |
| ALLFTGIAVLGIVMLKRIHSLYRR [SCAMP3] | 2.2 ± 0.52 | 1.96 ± 0.25 |  |  |
| THGALCLELLVNNGADVNIQSKDG [ANKRD44] | 3.99 ± 0.22 | 4.01 ± 0.37 |  |  |
| SLVLILSLSYTVLIVGRIAIGVSI [SLC2A12] | 2.94 ± 0.2 | 3.41 ± 0.33 |  |  |
| DITVSVSTSFLPELSSVHPPHYFF [FBXO3] | 2.79 ± 0.48 | 2.63 ± 0.58 |  |  |
| TALLSSGFSLEDPQTHSNRIYRMI [HSP90AB1] | 2.6 ± 0.36 | 2.56 ± 0.26 |  |  |
| SRDSAAITHSTYSLPASSYSQDPV [NOL4L] | 4.54 ± 0.12 | 4.62 ± 0.15 |  |  |
| GEDRAGPQSPSPGAPPAAKPARG [TSPAN10] |  |  | 5.32 ± 0.27 | 5.13 ± 0.12 |
| RRKDVCQAIDHGCEHICVNSDDSY [MATN2] | 4.34 ± 0.22 | 4.53 ± 0.33 |  |  |
| AKGIPQRAPPKRKRKRVKQRINTY [PCMTD1] | 4.41 ± 0.14 | 4.58 ± 0.16 |  |  |
| DMERFMEEMRELRRKIRELQLRYS [BEX5] | 2.44 ± 0.36 | 2.56 ± 0.6 |  |  |

| Sequence | protein stability index [1] | protein stability index [2] | protein stability index (treatment: DMSO, c terminus: native) | protein stability index (treatment: MLN4924 1 uM, 8 h, c terminus: native) |
| --- | --- | --- | --- | --- |
| EILRYMKEFTLLLSAANVCLDPII [P2RY14] | 2.44 ± 0.47 | 2.26 ± 0.31 |  |  |
| MAGNFWQSSHYLQWILDKQDLLKE [CCNC] | 2.34 ± 0.32 | 2.57 ± 0.38 |  |  |
| IDGIQAIYGRSQNPVQPIGPQTPK [MMP1] | 3.97 ± 0.074 | 4.07 ± 0.36 |  |  |
| LGAMMLLESPIDPQPLSFKEPPLL [APMAP] | 2.41 ± 0.11 | 2.5 ± 0.45 |  |  |
| IDQWKNKIWPEIKVPRPDALDNES [RETREG3] | 4.14 ± 0.24 | 4.3 ± 0.27 |  |  |
| GPGYWMCCHRSQKGFPGCKLGLHD [FBXO34] | 2.21 ± 0.44 | 2.11 ± 0.56 |  |  |
| AKSLSFRKGELVTASKAIIEKEYQ [ADD1] | 3.71 ± 0.19 | 3.94 ± 0.45 |  |  |
| EVLLDHLKAHAEEKPPSGTKEKKH [PLAGL1] | 4.88 ± 0.2 | 5.08 ± 0.14 |  |  |
| KLFDVPSLNGVYPRMNEVYTRLGE [CEP70] | 2.65 ± 0.17 | 2.53 ± 0.34 |  |  |
| FASLRPSEPFLTPYLLGPDKNLTE [SLC19A2] | 2.59 ± 0.48 | 3.17 ± 0.62 |  |  |
| KMGGKDFSFRYQQELEEEIKELYE [ATL3] | 2.52 ± 0.51 | 2.87 ± 0.32 |  |  |
| LVVLRFLTMNSEDERRDAEERASL [KCNK9] | 2.68 ± 0.15 | 2.62 ± 0.28 |  |  |
| EGRLRYPSRREPPPRRSRSRSHDR [CLK3] | 5.33 ± 0.31 | 5.45 ± 0.1 |  |  |
| EQELKTVTYSLLKRLKERSLDTLL [SMAD6] | 2.35 ± 0.34 | 2.22 ± 0.31 |  |  |
| CSPALKRSHSDSLDHDIFQLIDPD [CDC25A] | 3.76 ± 0.34 | 3.72 ± 0.41 |  |  |
| LRDGAVPLPESRREIEELLAEAKY [KCTD10] | 4.5 ± 0.25 | 4.66 ± 0.28 |  |  |
| KCLSIMLAEWEANPLICPVCTKYN [RPAIN] | 2.8 ± 0.73 | 2.29 ± 0.19 |  |  |
| MLIFWTITLFLLGAAKGKEVCYED [PNLIPRP1] | 3.72 ± 0.18 | 3.3 ± 0.69 |  |  |
| FSFMYILVGLTVIGAFLNLVVLRF [KCNK9] | 3.18 ± 0.13 | 3.25 ± 0.31 |  |  |
| SPPAAPCPPPPGPAAAPEGDWARL [ZBED3] | 5.08 ± 0.16 | 5.07 ± 0.063 |  |  |
| DIKICALGEEWSLHKIYLCQSGYF [GMCL1] | 2.91 ± 0.62 | 2.62 ± 0.49 |  |  |
| FNGLTLLLMAVVSMFTLPVVYVKH [RTN1] | 3.3 ± 0.28 | 3 ± 0.41 |  |  |
| SKILSSKSKAYTVVGTPCYISPEL [NEK8] | 2.82 ± 0.12 | 2.88 ± 0.37 |  |  |

| Sequence | protein stability index [1] | protein stability index [2] | protein stability index (treatment: DMSO, c terminus: native) | protein stability index (treatment: MLN4924 1 uM, 8 h, c terminus: native) |
| --- | --- | --- | --- | --- |
| SFQDNLHNRKKHLNGLQHLKAKKV [ZMAT5] | 3.51 ± 0.46 | 3.49 ± 0.23 |  |  |
| AAGKAEVVLGNIIKKKGWRRSSLV [KCNAB2] | 2.87 ± 0.24 | 2.96 ± 0.31 |  |  |
| NMTQDEFKSLFGSIGDIESCKLVR [ELAVL3] | 3.28 ± 0.15 | 3.33 ± 0.46 |  |  |
| LNGSSQPTTRNYPELNNNQYNRSS [CDC14A] | 4.19 ± 0.17 | 4.34 ± 0.09 |  |  |
| LRGPSPWGFRLVGGRDFSAPLTIS [PDLIM4] | 2.79 ± 0.2 | 2.44 ± 0.22 |  |  |
| LRCGNQGKGWKATRLFHDSAVTSV [DCAF4] | 2.19 ± 0.21 | 2.27 ± 0.22 |  |  |
| DKFVIVDCRYPYEYEGGHIKTAVN [CDC25B] | 2.48 ± 0.28 | 2.21 ± 0.23 |  |  |
| DEHIASEEPAEKEDLLQQMLERRY [CLCN6] | 5.03 ± 0.2 | 4.98 ± 0.16 |  |  |
| EILYPALPTDGSTGVELAPRSAEP [PCDHGA10] | 4.57 ± 0.23 | 4.85 ± 0.1 |  |  |
| EPPKCLDPCVISQEIMEKYNIKLK [CFHR2] | 2.84 ± 0.27 | 2.87 ± 0.34 |  |  |
| NYYRTWNVVVHDWLYYYAYKDFLW [SOAT1] | 3.73 ± 0.5 | 2.94 ± 0.34 |  |  |
| GAFRKGKSFILDFMLRYLYSQKES [ATL3] | 2.3 ± 0.42 | 2.22 ± 0.49 |  |  |
| RRQCRPEIRMWQTREKAKFSDGEK [PHTF1] | 3.87 ± 0.29 | 4.23 ± 0.051 |  |  |
| DRDPNSLLISCAVSYRGAWWYRNC [TNXB] | 2.83 ± 0.24 | 2.77 ± 0.98 |  |  |
| SLTLEDVAVDFTWEEWQFLSPAQK [ZNF649] | 3.83 ± 0.11 | 3.95 ± 0.12 |  |  |
| LPIQTPGAFLRTCLLSSNSRSLLT [TLE6] | 2.06 ± 0.34 | 2.1 ± 0.19 |  |  |
| PGARGLWKPPDIKGKLMVCYETLP [SPAG8] | 2.56 ± 0.26 | 2.51 ± 0.16 |  |  |
| ENEKDRADQTVLTEDEKKELENLA [CHGB] | 5.54 ± 0.19 | 5.75 ± 0.18 |  |  |
| EDNEREGTENGAIDAVPVDENLFT [ZC3H15] | 5.54 ± 0.15 | 5.68 ± 0.23 |  |  |
| VIGALLRFNQAILVSRHDPASRRR [LPCAT4] | 2.28 ± 0.22 | 2.36 ± 0.19 |  |  |
